Assay [1] has as its target T1, HPV18 E7 protein, recombinant (His-TEV-E7 fusion from E. coli) (Human Papilloma Virus type 18 (HPV18), UniProt P06788 1-105, CKII phosphorylation of the consensus site serines in the antigen preparation of Example 2; biotin on primary amines in the SPR assay).
T1 construct: mature; also called VE7_HPV18; not shown: N-terminal 6x Histidine tag and TEV cleavage site of the vector
T1 sequence: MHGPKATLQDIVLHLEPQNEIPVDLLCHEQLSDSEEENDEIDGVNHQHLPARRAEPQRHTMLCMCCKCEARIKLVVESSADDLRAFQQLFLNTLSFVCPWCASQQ
The experiment in a line: ELISA and dot-blot, semiquantitative crossreactivity (+ weak interaction). (An ELISA detects its analyte on a solid surface through an enzyme-linked reagent.)

For assay [2], the target named is T1, HPV18 E7 protein, recombinant …. In words: ELISA and dot-blot, semiquantitative crossreactivity.
Description: Using ELISA and dot-blot techniques semiquantitative crossreactivities of the isolated mAbs was analysed. For this various mAbs were tested against the accepted high risk species.
Assay [3] has as its target T2, HPV52 E7 protein, recombinant (His-TEV-E7 fusion from E. coli) (Human Papilloma Virus type 52 (HPV52), UniProt P36831 1-99, CKII phosphorylation of the consensus site serines in the antigen preparation of Example 2).
T2 construct: mature; also called VE7_HPV52; not shown: N-terminal 6x Histidine tag and TEV cleavage site of the vector
T2 sequence: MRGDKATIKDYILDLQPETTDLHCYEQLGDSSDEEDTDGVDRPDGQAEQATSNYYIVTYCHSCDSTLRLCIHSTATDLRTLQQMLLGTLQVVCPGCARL
The experiment in a line: ELISA, HPV52E7 immobilised on polystyrene plates in 3-fold dilution steps, detected with ACAB452.

Assay [4] concerns the target T3, HPV33 E7 protein, recombinant (His-TEV-E7 fusion from E. coli) (Human Papilloma Virus type 33 (HPV33), UniProt P06429 1-97, CKII phosphorylation of the consensus site serines in the antigen preparation of Example 2; biotin on primary amines in the SPR assay).
T3 construct: mature; also called VE7_HPV33; not shown: N-terminal 6x Histidine tag and TEV cleavage site of the vector
T3 sequence: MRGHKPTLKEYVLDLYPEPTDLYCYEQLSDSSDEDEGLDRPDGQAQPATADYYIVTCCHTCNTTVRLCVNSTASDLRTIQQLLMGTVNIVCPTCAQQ
In words: ELISA and dot-blot, semiquantitative crossreactivity (+ weak interaction).

Assay [5] addresses T4, HPV31 E7 protein, recombinant (His-TEV-E7 fusion from E. coli) (Human Papilloma Virus type 31 (HPV31), UniProt P17387 1-98, CKII phosphorylation of the consensus site serines in the antigen preparation of Example 2).
T4 construct: mature; also called VE7_HPV31; not shown: N-terminal 6x Histidine tag and TEV cleavage site of the vector
T4 sequence: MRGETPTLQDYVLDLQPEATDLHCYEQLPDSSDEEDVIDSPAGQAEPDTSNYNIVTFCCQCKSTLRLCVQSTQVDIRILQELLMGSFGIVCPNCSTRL
In words: ELISA, HPV31E7 immobilised on polystyrene plates in 3-fold dilution steps, detected with ACAB452; no concentrations printed on the X axis.

B1: ACAB161 (antibody, IgG2a, V domains shown)
VH: EVMLVESGGGLVKPGGSLKLSCAASGFTFSRYTMSWVRQTPEKRLEWVATISSGGTNTNYTDSVKGRFTISRDNAKNNLYLQMSSLRSEDTALYYCTRGVRRGDGYAMDYWGQGTSVTVSS
VL: DIVLTQAAPSVPVTPGESVSISCRSTKSLLHSNGNTYLYWFLQRPGQSPQALIYRTSNLASGVPDRFSGSGSGTAFTLRISRVEAEDVGVYYCMQHLEYPLTFGAGTKLELKR
notes: the printed entries run on into the first residues of the constant domains; also called HPV16E7 IgG2a antibody ACAB161
With B1, in assay [1], the binding result was “binds”.

B2: ACAB164 (antibody, V domains shown)
VH: EVQLQQSGLALVQPGASVKISCRTSGYTFTEYTLHWVKQSHGKSLEWIGGINPNNGSPKYNQKFKGKATLTVDKSSSTAYMELRSLTSEDSAVYYCARLDINSFFDYWGQGTTLTVSS
VL: DVVMTQSPLSLPVSLGDQASISCRSSQSLVHSNGNTYLQWYLQKPGQSPKLLIYKLSNRFSGVPDRFSGSGSGTDFTLKISRVEAEDLGVYSCSQTTHVPPTFGGGTKLEIKR
notes: the printed entries run on into the first residues of the constant domains; also called HPV16E7 IgG2a antibody ACAB164
As for B2, the binding result in assay [2] was “no binding”.

B3: ACAB452 (antibody, IgG1, V domains shown)
VH: DVQLQESGPGLVKPSQSLSLTCTVTGYSITSDYAWNWIRQFPGNKLEWVGYITYSGSTNYNPSLKSRISITRDTSKNQFFLQFNSVTSEDTATYFCARSWFAYWGQGTLVTVSS
VL: DIVMTQTPLSLPVSLGDQASISCRSSQSLVHSNGNTYLHWFLQKPGQSPKLLIYKVSNRFSGVPDRFSGSGSGTDFTLKISRVEAEDLGVYFCLQSAHVPLTFGAGTKLELTR
notes: also called HPV45E7 IgG1 antibody ACAB452
Turning to B3, the figures for the binding result in assay [3], in assay [4] and in assay [5] were “no binding (tested: 800 nM immobilised antigen (per legend))”, “binds” and “binds”, respectively.

Source of the values: patent US20150023979A1 (VALDOSPAN, published 2015).
